Source: the Human Domainome abundance scans (Beltran et al. 2025)
± gives the uncertainty stated by the source.

B1: Protein piccolo, residues 1058 to 1114; numbered along this chain, Q9Y6V0 (parent)
chain: TCPLCKTELNIGSKDPPNFNTCTECKNQVCNLCGFNPTPHLTEIQEWLCLNCQTQRA

Variants of: B1
Assay: abundance fitness (aPCA) (normalised: wild type 0, dead -1); higher = more abundant; growth selection in yeast, the domain comes from the species named
Settings: Homo sapiens

Point of comparison: TCPLCKTELNIGVKDPPNFNTCTECKNQVCNLCGFNPTPHLTEIQEWLCLNCQTQRA [S13V], abundance fitness -0.456 ± 0.098. Against it:
- TCPLCKTELNSGSKDPPNFNTCTECKNQVCNLCGFNPTPHLTEIQEWLCLNCQTQRA [I11S] — higher, -0.026 ± 0.092
- TCPLCKTELNPGSKDPPNFNTCTECKNQVCNLCGFNPTPHLTEIQEWLCLNCQTQRA [I11P] — higher, 0.11 ± 0.14
- TCPLCKTELNWGSKDPPNFNTCTECKNQVCNLCGFNPTPHLTEIQEWLCLNCQTQRA [I11W] — within error, -0.333 ± 0.11
- TCPLCKTELNQGSKDPPNFNTCTECKNQVCNLCGFNPTPHLTEIQEWLCLNCQTQRA [I11Q] — higher, 0.065 ± 0.12
- TCPLCKTELNNGSKDPPNFNTCTECKNQVCNLCGFNPTPHLTEIQEWLCLNCQTQRA [I11N] — higher, 0.037 ± 0.18
- TCPLCKTELNRGSKDPPNFNTCTECKNQVCNLCGFNPTPHLTEIQEWLCLNCQTQRA [I11R] — higher, -0.112 ± 0.081
- TCPLCKTELNTGSKDPPNFNTCTECKNQVCNLCGFNPTPHLTEIQEWLCLNCQTQRA [I11T] — higher, -0.099 ± 0.15
- TCPLCKTELNYGSKDPPNFNTCTECKNQVCNLCGFNPTPHLTEIQEWLCLNCQTQRA [I11Y] — higher, 0.086 ± 0.15
- TCPLCKTELNVGSKDPPNFNTCTECKNQVCNLCGFNPTPHLTEIQEWLCLNCQTQRA [I11V] — higher, -0.046 ± 0.098
- TCPLCKTELNIGSKDFPNFNTCTECKNQVCNLCGFNPTPHLTEIQEWLCLNCQTQRA [P16F] — higher, 0.024 ± 0.13
- TCPLCKTELNIGSKDNPNFNTCTECKNQVCNLCGFNPTPHLTEIQEWLCLNCQTQRA [P16N] — within error, -0.229 ± 0.26
- TCPLCKTELNIGSKDLPNFNTCTECKNQVCNLCGFNPTPHLTEIQEWLCLNCQTQRA [P16L] — higher, -0.095 ± 0.091
- TCPLCKTELNIGSKDGPNFNTCTECKNQVCNLCGFNPTPHLTEIQEWLCLNCQTQRA [P16G] — within error, -0.354 ± 0.12
- TCPLCKTELNIGSKDCPNFNTCTECKNQVCNLCGFNPTPHLTEIQEWLCLNCQTQRA [P16C] — higher, -0.045 ± 0.11
- TCPLCKTELNIGSKDHPNFNTCTECKNQVCNLCGFNPTPHLTEIQEWLCLNCQTQRA [P16H] — higher, 0.009 ± 0.21
- TCPLCKTELNIGSKDAPNFNTCTECKNQVCNLCGFNPTPHLTEIQEWLCLNCQTQRA [P16A] — within error, -0.37 ± 0.2
- TCPLCKTELNIGSKDIPNFNTCTECKNQVCNLCGFNPTPHLTEIQEWLCLNCQTQRA [P16I] — higher, -0.173 ± 0.16
- TCPLCKTELNIGSKDEPNFNTCTECKNQVCNLCGFNPTPHLTEIQEWLCLNCQTQRA [P16E] — higher, -0.187 ± 0.13
- TCPLCKTELNIGSKDKPNFNTCTECKNQVCNLCGFNPTPHLTEIQEWLCLNCQTQRA [P16K] — within error, -0.248 ± 0.14
- TCPLCKTELNIGSKDMPNFNTCTECKNQVCNLCGFNPTPHLTEIQEWLCLNCQTQRA [P16M] — higher, -0.09 ± 0.12
- TCPLCKTELNIGSKDQPNFNTCTECKNQVCNLCGFNPTPHLTEIQEWLCLNCQTQRA [P16Q] — higher, -0.094 ± 0.16
- TCPLCKTELNIGIKDPPNFNTCTECKNQVCNLCGFNPTPHLTEIQEWLCLNCQTQRA [S13I] — within error, -0.21 ± 0.16
- TCPLCKTELNIGFKDPPNFNTCTECKNQVCNLCGFNPTPHLTEIQEWLCLNCQTQRA [S13F] — higher, -0.148 ± 0.1
- TCPLCKTELNIGEKDPPNFNTCTECKNQVCNLCGFNPTPHLTEIQEWLCLNCQTQRA [S13E] — within error, -0.257 ± 0.13
- TCPLCKTELNIGMKDPPNFNTCTECKNQVCNLCGFNPTPHLTEIQEWLCLNCQTQRA [S13M] — higher, 0.012 ± 0.1
- TCPLCKTELNIGYKDPPNFNTCTECKNQVCNLCGFNPTPHLTEIQEWLCLNCQTQRA [S13Y] — within error, -0.227 ± 0.18
- TCPLCKTELNIGHKDPPNFNTCTECKNQVCNLCGFNPTPHLTEIQEWLCLNCQTQRA [S13H] — higher, -0.079 ± 0.21
- TCPLCKTELNIGRKDPPNFNTCTECKNQVCNLCGFNPTPHLTEIQEWLCLNCQTQRA [S13R] — higher, -0.264 ± 0.079
- TCPLCKTELNIGNKDPPNFNTCTECKNQVCNLCGFNPTPHLTEIQEWLCLNCQTQRA [S13N] — higher, -0.146 ± 0.18
- TCPLCKTELNIGCKDPPNFNTCTECKNQVCNLCGFNPTPHLTEIQEWLCLNCQTQRA [S13C] — within error, -0.384 ± 0.13
- TCPLCKTELNIGPKDPPNFNTCTECKNQVCNLCGFNPTPHLTEIQEWLCLNCQTQRA [S13P] — higher, -0.062 ± 0.11
- TCPLCKTELNIGQKDPPNFNTCTECKNQVCNLCGFNPTPHLTEIQEWLCLNCQTQRA [S13Q] — higher, 0.135 ± 0.12
- TCPLCKTELNIGAKDPPNFNTCTECKNQVCNLCGFNPTPHLTEIQEWLCLNCQTQRA [S13A] — within error, -0.37 ± 0.095
- TCPLCKTELNIGLKDPPNFNTCTECKNQVCNLCGFNPTPHLTEIQEWLCLNCQTQRA [S13L] — higher, -0.23 ± 0.078
- TCPLCKTELNIGGKDPPNFNTCTECKNQVCNLCGFNPTPHLTEIQEWLCLNCQTQRA [S13G] — within error, -0.525 ± 0.1
- TCPLCKTELNIGDKDPPNFNTCTECKNQVCNLCGFNPTPHLTEIQEWLCLNCQTQRA [S13D] — within error, -0.463 ± 0.16
- TCPLCKTELNIGTKDPPNFNTCTECKNQVCNLCGFNPTPHLTEIQEWLCLNCQTQRA [S13T] — higher, -0.048 ± 0.11
- TCPLCKTELNIGKKDPPNFNTCTECKNQVCNLCGFNPTPHLTEIQEWLCLNCQTQRA [S13K] — higher, 0.209 ± 0.14
- TCPLCKTELNIGSWDPPNFNTCTECKNQVCNLCGFNPTPHLTEIQEWLCLNCQTQRA [K14W] — within error, -0.525 ± 0.13
- TCPLCKTELNIGSVDPPNFNTCTECKNQVCNLCGFNPTPHLTEIQEWLCLNCQTQRA [K14V] — higher, 0.039 ± 0.091
- TCPLCKTELNIGSCDPPNFNTCTECKNQVCNLCGFNPTPHLTEIQEWLCLNCQTQRA [K14C] — within error, -0.643 ± 0.13
- TCPLCKTELNIGSADPPNFNTCTECKNQVCNLCGFNPTPHLTEIQEWLCLNCQTQRA [K14A] — higher, -0.079 ± 0.1
- TCPLCKTELNIGSGDPPNFNTCTECKNQVCNLCGFNPTPHLTEIQEWLCLNCQTQRA [K14G] — higher, 0.021 ± 0.084
- TCPLCKTELNIGSNDPPNFNTCTECKNQVCNLCGFNPTPHLTEIQEWLCLNCQTQRA [K14N] — higher, -0.016 ± 0.26
- TCPLCKTELNIGSHDPPNFNTCTECKNQVCNLCGFNPTPHLTEIQEWLCLNCQTQRA [K14H] — higher, 0.056 ± 0.18
